Measurements: paper PMC10713589
Where “and” joins values, the source holds several entries; their conditions need not be identical. Identical values can stand only once.

Assays:
[1] = biological target: Full-length VEX1 tagged with 12xmyc at the C-terminus at the native locus (Trypanosoma brucei); assay: SEC; trypanosome extracts (1% CHAPS in PBS, micrococcal nuclease treated) on a BioBasic SEC 1000 column at 5 °C, elution in 0.3% CHAPS in PBS; fractions analysed by anti-myc protein blot; calibrated with thyroglobulin, ferritin, BSA and myoglobin
[2] = biological target: VSG exclusion factor 1 (VEX1), full length, with a C-terminal 12xmyc tag at the native locus (T. brucei); assay: native gel or EMSA; blue native PAGE (3-12% gradient, 4 °C) of digitonin lysates treated with micrococcal nuclease, blotted for the myc-tagged protein; with and without knockdown of VEX1, VEX2 or CAF-1
[3] = biological target: VSG exclusion factor 2 (VEX2) with an N-terminal 6x c-myc tag, tagged at the native locus (T. brucei); assay: as above

In the case of “Full-length VEX1 tagged with 12xmyc at the C-terminus at the native locus (natural protein)”, the stoichiometry N [1] is reported as 2.
“VSG exclusion factor 1 (VEX1), full length, with a C-terminal 12xmyc tag at the native locus (natural protein)” showed a stoichiometry N [2] of 2.
“VSG exclusion factor 2 (VEX2) with an N-terminal 6x c-myc tag, tagged at the native locus (natural protein)” was tested, and the stoichiometry N [3] was 2 and 6.
